From the supplement of paper PMC9170038

Test system: MS2 coat protein
Assay: apparent KD of MS2 coat protein; designed switch direction (-1 OFF switch, 1 ON switch): 1; higher = weaker reporter binding
Procedure, shortened: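 An oligonucleotide input, 200 uM small-molecule ligand, or no input was present during titration of SNAP-549-labelled MS2 coat protein, which was doubled from 0.7 or 1.5 nM to 3 µM. Designed RNA switches had been transcribed on Illumina chips by stalled E. coli RNA polymerase. Apparent KD per design is the median over clusters of curves fitted to normalised cluster fluorescence.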

[1] = input ligand: microRNA oligo, concentration not stated
[2] = Eterna round: R95, input ligand: FMN 200 uM
[3] = Eterna round: R95, input ligand: microRNA oligo, concentration not stated
[4] = Eterna round: R95, input ligand: none

AGAUCAUGACGAGGAUAUGCCACAUGAGGAUCACCCAUGUAUGUGGUAGGACGGAAACGUCCAAAGCAGAAGGCGUCGUGGUCA [Mat - Same State NG 2 - JL mod - D35] (Eterna round: R96, puzzle: Same State NG 2)
apparent KD of MS2 coat protein (input ligand: FMN 200 uM): 23.1 nM | apparent KD of MS2 coat protein [1]: 44.8 nM | apparent KD of MS2 coat protein (input ligand: none): 41.7 nM

AGAUCAUGACGAGGAUAUGGUACAUGAGGAUCACCCAUGUAUGUACCACGACGCGUACGUCGAAUCCAGAAGGCGUCAUGAUCA [Mat - Same State NG 2 - JL mod - D18] (Eterna round: R96, puzzle: Same State NG 2)
apparent KD of MS2 coat protein (input ligand: FMN 200 uM): 21.6 nM | apparent KD of MS2 coat protein [1]: 92.8 nM | apparent KD of MS2 coat protein (input ligand: none): 150 nM

AGCGAAAUAAGCAAGGAUAUGUAAUUUGGCACAUGAGGAUCACCCAUGUCAAUCCAUUUUUUUGAACAGAAGGUGCAUUUUUUUU [ak second] (puzzle: Same State 2)
apparent KD of MS2 coat protein [2]: 48.6 nM | apparent KD of MS2 coat protein [3]: 53.5 nM | apparent KD of MS2 coat protein [4]: 45.4 nM

AGCGAACAGUCCUCAAAGGCAACAUGAGGAUCACCCAUGUCAUAGGAUAUGCUAAAAGCUCAGUAGCAGAAGGAUGGAGGACUG [Edatusbe] (Eterna round: R96, puzzle: Same State NG 3)
apparent KD of MS2 coat protein (input ligand: FMN 200 uM): 19.5 nM | apparent KD of MS2 coat protein [1]: 28.1 nM | apparent KD of MS2 coat protein (input ligand: none): 23.5 nM

AGCUAAUACGAAGGAUAUACUGACAUGAGGAUCACCCAUGUCUACAUGAUUUAUUGUGAUCACAUGUAGAAGGUCGUACUAACA [SameState NG2 #23] (Eterna round: R96, puzzle: Same State NG 2)
apparent KD of MS2 coat protein (input ligand: FMN 200 uM): 26.8 nM | apparent KD of MS2 coat protein [1]: 62.3 nM | apparent KD of MS2 coat protein (input ligand: none): 79.8 nM

AGCUAGUACCGAGGAUAUACAUACAUGAGGAUCACCCAUGUAUACAUGAACAAUUGAGACUACAUGUAGAAGGCGGUACUAGCA [JL SSNG2 1.19] (Eterna round: R96, puzzle: Same State NG 2)
apparent KD of MS2 coat protein [1]: 37.4 nM

AGCUAUUACGAAGGAUAUUGUGACAUGAGGAUCACCCAUGUUUACAUGAUUAAUUGUGAUCACGUCGAGAAGGUUGUACUAACA [SameState NG2 #32] (Eterna round: R96, puzzle: Same State NG 2)
apparent KD of MS2 coat protein (input ligand: FMN 200 uM): 24.3 nM | apparent KD of MS2 coat protein [1]: 27.3 nM | apparent KD of MS2 coat protein (input ligand: none): 30.2 nM

AGCUUCAAACUUUGCUCGUCGCGCCAGCGACAUGAGGAUCACCCAUGUGGGCGCAACCUCGUUAGCCCGAGGGCUCG [Labire] (puzzle: Sensor for hsa-mir-208a)
apparent KD of MS2 coat protein [2]: 27.1 nM | apparent KD of MS2 coat protein [3]: 14 nM | apparent KD of MS2 coat protein [4]: 29 nM

AGGAAGGAGACUGAGGAUAUCGUUGAAAAGACAUGAGGAUCACCCAUGUGUAUAGGAUUGGAGAACGAGAAGGCAGAGGAGUGGA [JR_SS2_Sub044] (puzzle: Same State 2)
apparent KD of MS2 coat protein [2]: 29.2 nM | apparent KD of MS2 coat protein [3]: 33.3 nM | apparent KD of MS2 coat protein [4]: 37.5 nM

AGGAAGGAGACUGAGGAUAUCGUUGAAAGGACAUGAGGAUCACCCAUGUGUAUAGGAUUGGAGAACGAGAAGGCAGAGGAGUGGA [JR_SS2_Sub045] (puzzle: Same State 2)
apparent KD of MS2 coat protein [2]: 36.4 nM | apparent KD of MS2 coat protein [3]: 46.6 nM | apparent KD of MS2 coat protein [4]: 71.2 nM

AGGCUCAGACGAGGAUAUAUGCGAUCACAUGAGGAUCACCCAUGUCUCGAGCUUCGGCUCGAGGCAUAGAAGGUGUCUGAGCCA [SSNG2/4-C1] (Eterna round: R96, puzzle: Same State NG 2)
apparent KD of MS2 coat protein (input ligand: FMN 200 uM): 31.4 nM | apparent KD of MS2 coat protein [1]: 111 nM | apparent KD of MS2 coat protein (input ligand: none): 126 nM

AGGCUCAGACGAGGAUAUGAUCAUGGCGCUUCGGCGCAUACAUGAGGAUCACCCAUGUAAAGUGAUCAGAAGGCGUCUGAGCCA [SSNG2/7-A1] (Eterna round: R96, puzzle: Same State NG 2)
apparent KD of MS2 coat protein (input ligand: FMN 200 uM): 12.3 nM | apparent KD of MS2 coat protein [1]: 14.5 nM | apparent KD of MS2 coat protein (input ligand: none): 14.2 nM

AGUCCACCCUGAGGUGGACAAAAGCAUGUACAUGAGGAUCACCCAUGUCAUGUACAAGCUUUUUGCUCGUCUUAAUA [Mat - hsa-mir-208a - Mod of JL - D42] (puzzle: Sensor for hsa-mir-208a)
apparent KD of MS2 coat protein [2]: 589 nM | apparent KD of MS2 coat protein [3]: 17.9 nM | apparent KD of MS2 coat protein [4]: 734 nM

AGUCCAGAAUAAACUGGACAAAGACAUGUACAUGAGGAUCACCCAUGUCAUGUACAAGUUUUUUGCUCGUCUUAUAA (puzzle: Sensor for hsa-mir-208a)
apparent KD of MS2 coat protein [2]: 39.9 nM | apparent KD of MS2 coat protein [3]: 10.4 nM | apparent KD of MS2 coat protein [4]: 37.2 nM

AGUCCAGCAAGAGCUGGACAAAAGCAUGUACAUGAGGAUCACCCAUGUUCAUGUACAAGCUUUUUGCUCGUCUUAAA [Mat - hsa-mir-208a - Mod of JL - 57] (puzzle: Sensor for hsa-mir-208a)
apparent KD of MS2 coat protein [2]: 413 nM | apparent KD of MS2 coat protein [3]: 16.5 nM | apparent KD of MS2 coat protein [4]: 659 nM

AGUCCAGCAUGAGCUGGACAAAAGCAUGUACAUGAGGAUCACCCAUGUUCAUGUACAAGCUUUUUGCAAGUCAAAAU [Mat - hsa-mir-208a - Mod of JL - 81] (puzzle: Sensor for hsa-mir-208a)
apparent KD of MS2 coat protein [2]: 614 nM | apparent KD of MS2 coat protein [3]: 17.8 nM | apparent KD of MS2 coat protein [4]: 595 nM

AGUCCAGCCUGAGCUGGACAAAAGCAUGUACAUGAGGAUCACCCAUGUCAUGUACAAGCUUUUUGCUCGUCUUAAAG [Mat - hsa-mir-208a - Mod of JL - D23] (puzzle: Sensor for hsa-mir-208a)
apparent KD of MS2 coat protein [2]: 231 nM | apparent KD of MS2 coat protein [3]: 18 nM | apparent KD of MS2 coat protein [4]: 312 nM

AGUCCAGCCUGAGCUGGACAAAAGCAUGUACAUGAGGAUCACCCAUGUCAUGUACAAGCUUUUUGCUCGUCUUAAUA [JL zipper 49] (Eterna round: R96, puzzle: Sensor for hsa-mir-208a)
apparent KD of MS2 coat protein (input ligand: FMN 200 uM): 600 nM | apparent KD of MS2 coat protein [1]: 16.2 nM | apparent KD of MS2 coat protein (input ligand: none): 471 nM

AGUCCAGCCUGAGCUGGACAAAAGCAUGUACAUGAGGAUCACCCAUGUCAUGUACAAGCUUUUUGCUCGUCUUAAUA [Mat - hsa-mir-208a - Mod of JL - D44] (puzzle: Sensor for hsa-mir-208a)
apparent KD of MS2 coat protein [2]: 544 nM | apparent KD of MS2 coat protein [3]: 15.3 nM | apparent KD of MS2 coat protein [4]: 634 nM

AGUCCAGCCUGAGCUGGACAAAAGCAUGUACAUGAGGAUCACCCAUGUCAUGUACAAGCUUUUUGCUCGUUUUAAUA [Zipper 49 - 14] (puzzle: Sensor for hsa-mir-208a)
apparent KD of MS2 coat protein [2]: 509 nM | apparent KD of MS2 coat protein [3]: 14 nM | apparent KD of MS2 coat protein [4]: 679 nM

AGUCCAGCCUGAGCUGGACAAAAGCAUGUACAUGAGGAUCACCCAUGUCAUGUAUAAGCUUUUUGCUCGUCUUAAAA [Zipper 46 - 10] (puzzle: Sensor for hsa-mir-208a)
apparent KD of MS2 coat protein [2]: 18.9 nM | apparent KD of MS2 coat protein [3]: 9.63 nM | apparent KD of MS2 coat protein [4]: 20.1 nM

AGUCCAGCCUGAGCUGGACAAAAGCAUGUACAUGAGGAUCACCCAUGUUCAUGUACAAGCUUUUUGCUCGUCGGAAU [Mat - hsa-mir-208a - Mod of JL - 49] (Eterna round: R96, puzzle: Sensor for hsa-mir-208a)
apparent KD of MS2 coat protein (input ligand: FMN 200 uM): 668 nM | apparent KD of MS2 coat protein [1]: 16.6 nM | apparent KD of MS2 coat protein (input ligand: none): 654 nM

AGUCCAGCCUGAGCUGGACAAAAGCAUGUACAUGAGGAUCACCCAUGUUCAUGUACAAGCUUUUUGCUCGUCGGAAU [Mat - hsa-mir-208a - Mod of JL - 49] (puzzle: Sensor for hsa-mir-208a)
apparent KD of MS2 coat protein [2]: 762 nM | apparent KD of MS2 coat protein [3]: 16.5 nM | apparent KD of MS2 coat protein [4]: 905 nM

AGUCCAGCCUGAGCUGGACAAAAGCAUGUACAUGAGGAUCACCCAUGUUCAUGUACAAGCUUUUUGCUCGUCUAAAG [Mat - hsa-mir-208a - Mod of JL - 66] (puzzle: Sensor for hsa-mir-208a)
apparent KD of MS2 coat protein [2]: 506 nM | apparent KD of MS2 coat protein [3]: 16.6 nM | apparent KD of MS2 coat protein [4]: 880 nM

AGUCCAGCCUGAGCUGGACAAAAGCAUGUACAUGAGGAUCACCCAUGUUCAUGUACAAGCUUUUUGCUCGUCUGAAU [Mat - hsa-mir-208a - Mod of JL - 47] (puzzle: Sensor for hsa-mir-208a)
apparent KD of MS2 coat protein [2]: 709 nM | apparent KD of MS2 coat protein [3]: 19.9 nM | apparent KD of MS2 coat protein [4]: 874 nM

AGUCCAGCCUGAGCUGGACAAAAGCAUGUACAUGAGGAUCACCCAUGUUCAUGUACAAGCUUUUUGCUCGUCUUGCG [salish99_208a_r3_106x] (puzzle: Sensor for hsa-mir-208a)
apparent KD of MS2 coat protein [2]: 641 nM | apparent KD of MS2 coat protein [3]: 17.3 nM | apparent KD of MS2 coat protein [4]: 867 nM

AGUCCAGCCUGAGCUGGACAAAAGCAUGUACAUGAGGAUCACCCAUGUUCGUGUACAAGCUUUUUGCUCGUCUUAAA [Zipper 52 - 5] (puzzle: Sensor for hsa-mir-208a)
apparent KD of MS2 coat protein [2]: 518 nM | apparent KD of MS2 coat protein [3]: 13.5 nM | apparent KD of MS2 coat protein [4]: 725 nM

AGUCCAGCCUGAGCUGGACAAGAGCAUGUACAUGAGGAUCACCCAUGUCAUGUACAAGCUUUUUGCUCGUCUUAAAA [Zipper 46 - 2] (puzzle: Sensor for hsa-mir-208a)
apparent KD of MS2 coat protein [2]: 493 nM | apparent KD of MS2 coat protein [3]: 14.3 nM | apparent KD of MS2 coat protein [4]: 478 nM

AUAAAACAUGAGGAUCACCCAUGUCAACAAAGUCGAGGAUAUGGGCAAAGAAAAUAAGAACCAGAAGGCGAAUAAU [salish99_ss1_r3_056] (Eterna round: R96, puzzle: Same State 1)
apparent KD of MS2 coat protein [1]: 245 nM

AUAAAACAUGAGGAUCACCCAUGUCAACAAAGUCGAGGAUAUGGGCAAAGAAAAUAAGAACCAGAAGGCGAAUAAU [salish99_ss1_r3_056] (puzzle: Same State 1)
apparent KD of MS2 coat protein [2]: 36.2 nM | apparent KD of MS2 coat protein [3]: 319 nM | apparent KD of MS2 coat protein [4]: 489 nM

AUAAAACAUGAGGAUCACCCAUGUCAACAAAGUCGAGGAUAUGGGCAAAUAAAAUAAGAACCAGAAGGCGAAUAAG [salish99_SS1_r3_004] (puzzle: Same State 1)
apparent KD of MS2 coat protein [2]: 30.7 nM | apparent KD of MS2 coat protein [3]: 88 nM | apparent KD of MS2 coat protein [4]: 266 nM
